Measured values as given in article doi:10.1101/2023.11.06.565731.

How the values were obtained:
[1] = molecular target: mouse α-synuclein pre-formed fibrils (mouse) (UniProt O55042); assay: other fluorescence titration
[2] = molecular target: mouse α-synuclein type B* oligomers (mouse) (UniProt O55042); assay: other fluorescence titration

For “BODIPY630/650-labelled PSMα3 peptide probe P1”, the Kd [1] was 1.4 µM, the fold increase of the emission peak intensity [1] was 16 fold and the fold increase of the excitation peak intensity [1] was 7.6 fold. It also gave a fold increase of the emission peak intensity [2] of 3 fold and a fold increase of the excitation peak intensity [2] of 1.8 fold.
